# Reference: IntAct's records for PubMed 29892012
# B1: Keratin, type I cuticular Ha8 (Homo sapiens), O76015 (parent)
# chain: MTSSYSSSSCPLGCTMAPGARNVSVSPIDIGCQPGAEANIAPMCLLANVAHANRVRVGSTPLGRPSLCLPPTCHTACPLPGTCHIPGNIGICGAYGENTLNGHEKETMQFLNDRLANYLEKVRQLEQENAELEATLLERSKCHESTVCPDYQSYFHTIEELQQKILCSKAENARLIVQIDNAKLAADDFRIKLESERSLRQLVEADKCGTQKLLDDATLAKADLEAQQESLKEEQLSLKSNHEQEVKILRSQLGEKLRIELDIEPTIDLNRVLGEMRAQYEAMLETNRQDVEQWFQAQSEGISLQDMSCSEELQCCQSEILELRCTVNALEVERQAQHTLKDCLQNSLCEAEDRFGTELAQMQSLISNVEEQLSEIRADLERQNQEYQVLLDVKTRLENEIATYRNLLESEDCKLPCNPCSTSPSCVTAPCAPRPSCGPCTTCGPTCGASTTGSRF
# partner: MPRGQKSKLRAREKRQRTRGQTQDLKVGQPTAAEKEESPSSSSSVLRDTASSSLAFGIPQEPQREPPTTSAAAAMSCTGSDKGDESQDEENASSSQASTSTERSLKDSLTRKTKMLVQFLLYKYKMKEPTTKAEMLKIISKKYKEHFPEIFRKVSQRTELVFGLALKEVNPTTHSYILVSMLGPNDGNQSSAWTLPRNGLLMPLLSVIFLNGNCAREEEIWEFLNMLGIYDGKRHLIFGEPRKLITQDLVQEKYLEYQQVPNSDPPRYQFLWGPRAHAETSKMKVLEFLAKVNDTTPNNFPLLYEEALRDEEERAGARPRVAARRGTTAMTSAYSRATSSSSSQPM
# B2: Liprin-alpha-1 (Homo sapiens), Q13136 (parent)
# chain: MMCEVMPTISEAEGPPGGGGGHGSGSPSQPDADSHFEQLMVSMLEERDRLLDTLRETQETLALTQGKLHEVGHERDSLQRQLNTALPQEFAALTKELNVCREQLLEREEEIAELKAERNNTRLLLEHLECLVSRHERSLRMTVVKRQAQSPAGVSSEVEVLKALKSLFEHHKALDEKVRERLRVALERCSLLEEELGATHKELMILKEQNNQKKTLTDGVLDINHEQENTPSTSGKRSSDGSLSHEEDLAKVIELQEIISKQSREQSQMKERLASLSSHVTELEEDLDTARKDLIKSEEMNTKLQRDVREAMAQKEDMEERITTLEKRYLAAQREATSVHDLNDKLENEIANKDSMHRQTEDKNRQLQERLELAEQKLQQTLRKAETLPEVEAELAQRVAALSKAEERHGNIEERLRQMEAQLEEKNQELQRARQREKMNEEHNKRLSDTVDKLLSESNERLQLHLKERMAALEDKNSLLREVESAKKQLEETQHDKDQLVLNIEALRAELDHMRLRGASLHHGRPHLGSVPDFRFPMADGHTDSYSTSAVLRRPQKGRLAALRDEPSKVQTLNEQDWERAQQASVLANVAQAFESDADVSDGEDDRDTLLSSVDLLSPSGQADAHTLAMMLQEQLDAINKEIRLIQEEKENTEQRAEEIESRVGSGSLDNLGRFRSMSSIPPYPASSLASSSPPGSGRSTPRRIPHSPAREVDRLGVMTLLPPSREEVRDDKTTIKCETSPPSSPRALRLDRLHKGALHTVSHEDIRDIRNSTGSQDGPVSNPSSSNSSQDSLHKAPKKKGIKSSIGRLFGKKEKGRPGQTGKEALGQAGVSETDNSSQDALGLSKLGGQAEKNRKLQKKHELLEEARRQGLPFAQWDGPTVVVWLELWVGMPAWYVAACRANVKSGAIMSALSDTEIQREIGISNPLHRLKLRLAIQEIMSLTSPSAPPTSRTTLAYGDMNHEWIGNEWLPSLGLPQYRSYFMECLVDARMLDHLTKKDLRGQLKMVDSFHRNSFQCGIMCLRRLNYDRKELERKREESQSEIKDVLVWSNDRVIRWILSIGLKEYANNLIESGVHGALLALDETFDFSALALLLQIPTQNTQARAVLEREFNNLLVMGTDRRFDEDDDKSFRRAPSWRKKFRPKDIRGLAAGSAETLPANFRVTSSMSSPSMQPKKMQMDGNVSGTQRLDSATVRTYSC
# partner: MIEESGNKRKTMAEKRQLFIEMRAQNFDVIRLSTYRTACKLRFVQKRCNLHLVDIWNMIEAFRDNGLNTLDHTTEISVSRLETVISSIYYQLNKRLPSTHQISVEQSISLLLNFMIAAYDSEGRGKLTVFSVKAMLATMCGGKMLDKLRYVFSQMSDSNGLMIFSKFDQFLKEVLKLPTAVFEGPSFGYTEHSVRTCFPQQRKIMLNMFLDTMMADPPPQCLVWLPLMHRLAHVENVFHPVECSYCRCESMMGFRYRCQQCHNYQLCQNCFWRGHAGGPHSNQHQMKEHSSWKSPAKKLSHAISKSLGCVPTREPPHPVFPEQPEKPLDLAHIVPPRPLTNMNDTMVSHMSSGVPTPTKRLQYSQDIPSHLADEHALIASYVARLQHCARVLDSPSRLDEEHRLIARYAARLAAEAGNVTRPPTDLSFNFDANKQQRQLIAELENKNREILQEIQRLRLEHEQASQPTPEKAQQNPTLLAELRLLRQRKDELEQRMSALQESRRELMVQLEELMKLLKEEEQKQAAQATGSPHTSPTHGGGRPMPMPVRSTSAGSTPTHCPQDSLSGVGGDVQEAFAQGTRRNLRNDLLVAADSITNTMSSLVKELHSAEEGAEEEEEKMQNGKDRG
# B3: Synaptotagmin-16 (Homo sapiens), Q17RD7 (parent)
# chain: MVLAMASQDVQNFFQPFSSWISRVYEALQQAGDMLSASLVNISKQDSKLSDKLDQDLDNIQIQETYFEDEEQDNDWSQEDANSLFLEVDHFSCCNSDLQDSAQNSSPSLSQHAKDSCSTMSQWPNWASDDRKLPHVLSSIAEEEHHLEKQRSGLQHGFDSQLPGTLETVNGKKQVNSFGDDEELSTSSDSDEEVIKQFEISVSRSQSFRSVTSEKGKQTGLEQKPKFSRSLLTHGEDGTEVSACEDLDGASQRRYSENLSYGEDDHIPAHSQSPCERGDAKHHGTSHQESSVVQSLRRQSTEGSLEMETAFNSRGFEDSYATDSSSMWSPEEQDRTNLQVPSGVSEPISKCGDLDVIFEYRAASQKLTVTIVRAQGLPDKDRSGVNSWQVHVVLLPGKKHRGRTNIQRGPNPVFREKVTFAKLEPRDVAACAVRFRLYAARKMTRERMMGEKLFYLSHLHPEGEMKVTLVLEPRSNISSGGSPLSPSAVSHSDSTSSTQSLSHGGAPELLVGLSYNATTGRLSVEMIKGSHFRNLAVNRAPDTYGKLFLLNSVGQEMSRCKTSIRRGQPNPVYKETFVFQVALFQLSDVTLMISVYNRRTMKRKEMIGWIALGQNSSGEEEQDHWEEMKETKGQQICRWHTLLES
# partner: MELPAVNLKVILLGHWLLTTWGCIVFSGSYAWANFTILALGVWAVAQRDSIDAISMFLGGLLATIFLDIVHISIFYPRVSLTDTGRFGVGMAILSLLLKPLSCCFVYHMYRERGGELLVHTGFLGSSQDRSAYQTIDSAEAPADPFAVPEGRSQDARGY
# B4: Keratin, type I cuticular Ha8 (Homo sapiens), O76015 (parent)
# chain: B1 chain
# partner: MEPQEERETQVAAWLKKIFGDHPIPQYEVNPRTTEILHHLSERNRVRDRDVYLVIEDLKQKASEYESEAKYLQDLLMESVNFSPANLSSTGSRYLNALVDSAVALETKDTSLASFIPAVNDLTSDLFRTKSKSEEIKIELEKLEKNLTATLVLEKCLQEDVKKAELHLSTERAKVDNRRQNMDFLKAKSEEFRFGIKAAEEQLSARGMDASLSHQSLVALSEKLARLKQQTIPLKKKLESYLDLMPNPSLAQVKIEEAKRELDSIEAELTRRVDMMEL
# Variants of: B1
# Settings: with magb4_human MAGEB4, O15481
row,effect of a mutation on the interaction,Variant
1,with no effect,D306A

# Variants of: B2
# Settings: with dtnb_human DTNB
row,effect of a mutation on the interaction,Variant
1,with no effect,P389L

# Variants of: B2
# Settings: with dtnb_human DTNB
# Remark: another data set of the same source
row,effect of a mutation on the interaction,Variant
1,with no effect,L330F

# Variants of: B3
# Settings: with atrap_human AGTRAP
row,effect of a mutation on the interaction,Variant
1,with no effect,R441W

# Variants of: B4
# Settings: with haus1_human HAUS1, Q96CS2
row,effect of a mutation on the interaction,Variant
1,with no effect,N270K

# Variants of: B4
# Settings: with haus1_human HAUS1, Q96CS2
# Remark: another data set of the same source
row,effect of a mutation on the interaction,Variant
1,with no effect,D306A
